Laboratory results from the Immune Epitope Database (IEDB).

What was measured:
Assay in all cases: IEDB peptide-MHC binding, purified MHC/competitive/radioactivity; filed as Kd, often an IC50 or EC50 that approximates it; ≥ and ≤ were set here for values at or beyond the usual limits of such assays
[1] = biological target: HLA-A*02:06
[2] = biological target: HLA-A*02:03
[3] = biological target: HLA-A*02:02
[4] = biological target: HLA-A*33:01
[5] = biological target: HLA-A*68:01
[6] = biological target: HLA-A*31:01
[7] = biological target: HLA-A*03:01
[8] = biological target: HLA-A*11:01
[9] = source organism: Vaccinia virus WR
[10] = source organism: Mammarenavirus guanaritoense
[11] = source organism: SARS coronavirus Tor2
[12] = source organism: Mammarenavirus whitewaterense
[13] = source organism: Mammarenavirus choriomeningitidis
[14] = source organism: Lymphocytic choriomeningitis virus (strain Armstrong)
[15] = source organism: Vaccinia virus Copenhagen
[16] = source organism: Triticum aestivum
[17] = source organism: Lassa virus Josiah

Sequence	Kd [1, 9] [nM]	Kd [2, 9] [nM]	Kd [3, 9] [nM]	Kd [4, 9] [nM]	Kd [5, 9] [nM]	Kd [6, 9] [nM]	Kd [7, 9] [nM]	Kd [8, 9] [nM]	other results
AAAKTPVIV	≥ 66800	1420	1900						
ALEQYGIENT	1270	2160	3150						
CIVAAVIIMA	733	619	1130						
CNYTRFWYI									Kd [1, 10]: 257 nM; Kd [2, 10]: 5310 nM; Kd [3, 10]: 10100 nM
CVRNLEELTT	≥ 42800	15200	12600						
DISVNASKTI	≥ 69800	11900	≥ 46800						
DIVSDSKKIM	≥ 69800	≥ 57200	≥ 25100						
DTGKKELALT	6800	262	1040						
DTLVKSGLT	≥ 52700	2880	1950						
DVKVLAARL	9990	10700	6230						
EAFETQSGA	≥ 49700	≥ 78100	≥ 77800						
EIITGNKVKT	≥ 69800	≥ 70400	≥ 70000						
EVRYIDITNI	4340	5810	12900						
FLPSDFFPSV									Kd ([3]; source organism: Hepatitis B virus): 2 nM
FLWLLWPVTL									Kd [1, 11]: 28.4 nM; Kd [2, 11]: 14 nM; Kd [3, 11]: 2.67 nM
FVKENERVNV	683	11.8	186						
FVMCLEAKT	979	1940	609						
GLFTSLGKAV									Kd ([2]; source organism: Dengue virus 4 Dominica/814669/1981): 18.7 nM
GLLQFIVFL									Kd [1, 12]: 12.4 nM; Kd [2, 12]: 7710 nM; Kd [3, 12]: 0.6 nM
GLYIPGTSVI	3620	0.189	92.1						
GMSKEPGVV									Kd ([2]; source organism: Dengue virus 3 Martinique/1243/1999): 41.7 nM
GTGILFMEM	9980	7730	2200						
GVCYYLLMHL	128	63.8	95.8						
GVLHTKFWI	417	12300	16600						
IAVITETIPI	1.04	31.9	515						
IIPFIAYFVL	852	4730	715						
ILFLTLIVFT									Kd [1, 11]: 703 nM; Kd [2, 11]: 1070 nM; Kd [3, 11]: 23.6 nM

Sequence	Kd [1, 9] [nM]	Kd [2, 9] [nM]	Kd [3, 9] [nM]	Kd [4, 9] [nM]	Kd [5, 9] [nM]	Kd [6, 9] [nM]	Kd [7, 9] [nM]	Kd [8, 9] [nM]	other results
ITETIPIGM	7690	≥ 42800	12400						
KINEMVDELV	3050	492	587						
KTIAVSVYGA	427	224	366						
LIVAALVFL									Kd [1, 11]: 10.5 nM; Kd [2, 11]: 136 nM; Kd [3, 11]: 9.38 nM
LIYRQLTSNV	169	7.49	78.7						
LLTIGLSLV									Kd ([2]; source organism: Dengue virus 1 Brazil/97-11/1997): 4.99 nM
LLVAAGMEA									Kd [1, 11]: 117 nM; Kd [2, 11]: 16.6 nM; Kd [3, 11]: 17.4 nM
LMGHFSWWTA									Kd [1, 11]: 97.4 nM; Kd [2, 11]: 135 nM; Kd [3, 11]: 19.2 nM
LNQTVYSLV									Kd [1, 13]: 5100 nM; Kd [2, 13]: 1500 nM; Kd [3, 13]: 3330 nM
LTQVKELGIA	18.1	150	11800						
LVFLILCFT									Kd [1, 11]: 1370 nM; Kd [2, 11]: 1850 nM; Kd [3, 11]: 2490 nM
NLPYNWKNFY				18600	626	1720	1780	4360	
NSESLSLISH									Kd [4, 14]: ≥ 31800 nM; Kd [5, 14]: ≥ 29300 nM; Kd [6, 14]: 16900 nM; Kd [7, 14]: ≥ 23400 nM; Kd [8, 14]: 8050 nM
NTLSERISSK				404	9.48	1410	48.8	0.736	
NTPLHIVCSK				7190	10.8	233	32.4	147	
NTRQLKLLEY				10800	1590	9830	969	152	
NVIEDITFLR				12.5	1.59	64.4	6720	230	
NYSKFWYLEH									Kd [4, 14]: 300 nM; Kd [5, 14]: ≥ 70100 nM; Kd [6, 14]: 5840 nM; Kd [7, 14]: ≥ 70000 nM; Kd [8, 14]: ≥ 69700 nM
PISELSRLRY				15500	≥ 44900	≥ 70000	3270	735	
PQVGGLTSIK									Kd [4, 11]: ≥ 70000 nM; Kd [5, 11]: ≥ 37500 nM; Kd [6, 11]: ≥ 70000 nM; Kd [7, 11]: ≥ 10000 nM; Kd [8, 11]: 6370 nM
QLDEKSSIK				≥ 56800	14000	4300	204	510	
QLMYALEPRK									Kd [4, 15]: ≥ 70000 nM; Kd [5, 15]: 83.8 nM; Kd [6, 15]: 8370 nM; Kd [7, 15]: 150 nM; Kd [8, 15]: 85 nM
QQHNIVHGK									Kd [4, 16]: ≥ 77700 nM; Kd [5, 16]: 728 nM; Kd [6, 16]: 2370 nM; Kd [7, 16]: 12500 nM; Kd [8, 16]: 914 nM
QSADASTFLK									Kd [4, 11]: 5290 nM; Kd [5, 11]: 49.4 nM; Kd [6, 11]: 1020 nM; Kd [7, 11]: 348 nM; Kd [8, 11]: 10.2 nM
RIQRRDDVDR				17600	≥ 42500	78.5	≥ 70100	≥ 69800	
RVDIYYNGNK				≥ 53600	120	5360	45.6	4.86	
SFYYIWKSY									Kd [4, 11]: 779 nM; Kd [5, 11]: 447 nM; Kd [6, 11]: 68.1 nM; Kd [7, 11]: 5150 nM; Kd [8, 11]: 6730 nM

Sequence	Kd [1, 9] [nM]	Kd [2, 9] [nM]	Kd [3, 9] [nM]	Kd [4, 9] [nM]	Kd [5, 9] [nM]	Kd [6, 9] [nM]	Kd [7, 9] [nM]	Kd [8, 9] [nM]	other results
SIHLTKTDKK				≥ 70000	1990	≥ 21800	185	278	
SLSVETITEK				≥ 70000	12200	1250	33.2	117	
SQMLLIVLK									Kd [4, 11]: 4960 nM; Kd [5, 11]: 310 nM; Kd [6, 11]: 350 nM; Kd [7, 11]: 204 nM; Kd [8, 11]: 0.503 nM
SSLDQTHIK									Kd [4, 15]: 19800 nM; Kd [5, 15]: 1490 nM; Kd [6, 15]: 26 nM; Kd [7, 15]: 961 nM; Kd [8, 15]: 31.8 nM
STNLCTHSFR									Kd [4, 11]: 8.87 nM; Kd [5, 11]: 6.19 nM; Kd [6, 11]: 0.941 nM; Kd [7, 11]: 297 nM; Kd [8, 11]: 10.6 nM
STRTIILVGY				8020	100	339	188	221	
SVEDVSAFVR				2120	15.6	656	≥ 70100	36.8	
SVIRLLIWAY				17600	776	2240	1380	17.3	
TFNSLNTDDY				≥ 70000	4080	≥ 34200	5440	10100	
TLTNTSIINH									Kd [4, 17]: ≥ 70000 nM; Kd [5, 17]: 13100 nM; Kd [6, 17]: ≥ 59800 nM; Kd [7, 17]: 5160 nM; Kd [8, 17]: 15400 nM
TQVLKTMSLY									Kd [4, 11]: ≥ 27600 nM; Kd [5, 11]: 10300 nM; Kd [6, 11]: 9420 nM; Kd [7, 11]: 185 nM; Kd [8, 11]: 2670 nM
TTKDYFSFKK				1330	0.556	96.4	31.3	1.25	
TVYDDAARR									Kd [4, 11]: 4970 nM; Kd [5, 11]: 2.54 nM; Kd [6, 11]: 1160 nM; Kd [7, 11]: 455 nM; Kd [8, 11]: 97.1 nM
VIGLTTHCTK				≥ 35300	73.2	761	15.4	45.9	
VLCNSQTSLR									Kd [4, 11]: 1180 nM; Kd [5, 11]: 1010 nM; Kd [6, 11]: 68.4 nM; Kd [7, 11]: 435 nM; Kd [8, 11]: 1860 nM
VLDRDGNFR				607	926	159	3330	15600	
VLTLATGPV									Kd ([2]; source organism: Dengue virus 4 Philippines/H241/1956): 24.9 nM
VSYEVFDDY				19100	1570	≥ 77900	≥ 37100	134	
VTMMKYCSY				2060	521	460	650	8.78	
VTYVPSQER									Kd [4, 11]: 341 nM; Kd [5, 11]: 1130 nM; Kd [6, 11]: 23.6 nM; Kd [7, 11]: 3270 nM; Kd [8, 11]: 883 nM
VVPDYGTYK									Kd [4, 11]: 17200 nM; Kd [5, 11]: 494 nM; Kd [6, 11]: 2720 nM; Kd [7, 11]: 309 nM; Kd [8, 11]: 84.4 nM
WFLKSGAVVK				4410	191	7630	11	116	
WLSSKGLACY				≥ 58600	≥ 28300	19500	418	≥ 28900	
YFTFGDTALY				≥ 45300	49.9	≥ 48000	9010	6400	
YLRNYMVIK				930	1670	35	1.34	897	
YVKNGTKGK				≥ 65500	39.3	≥ 72100	2080	875	
